In test [1] the target is Flt4 receptor tyrosine kinase (VEGFR-3) expressed on cells (human) (UniProt P35916). The test can be described thus: Scatchard analysis with 125I-labelled VEGF-C ΔNΔCHis (cell binding, PAE/VEGFR-3 cells).
Test [2] deals with T1, 32 kD VEGF-C polypeptide (amino acids 32-227 of prepro-VEGF-C) (human, UniProt P49767 32-227).
T1 construct: also called 32 kD form; 31 kD
T1 sequence: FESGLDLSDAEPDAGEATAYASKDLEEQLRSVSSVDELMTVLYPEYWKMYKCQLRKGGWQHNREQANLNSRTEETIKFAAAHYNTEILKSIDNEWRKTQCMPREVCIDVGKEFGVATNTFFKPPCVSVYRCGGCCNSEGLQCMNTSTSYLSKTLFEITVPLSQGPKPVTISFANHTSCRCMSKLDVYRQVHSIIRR
The test can be described thus: non-reducing and reducing SDS-PAGE of immunoprecipitates. The protocol:
The immunoprecipitates from each cell culture were subjected to SDS-PAGE under non-denaturing conditions (FIG. 6B). Bands 1-6 were cut out from the gel, soaked for 30 minutes in 1×gel-loading buffer containing 200 mM β-mercaptoethanol, and individually subjected to SDS-PAGE under denaturing conditions (FIGS. 6A and 6C, lanes 1-6).

In test [3] the target is T2, recombinant Flt4 extracellular domain with C-terminal 6xHis tag (baculovirus), coupled to Sepharose (human, UniProt P35916 25-775).
T2 construct: extracellular domain; also called Flt4EC; Flt4 EC
T2 sequence: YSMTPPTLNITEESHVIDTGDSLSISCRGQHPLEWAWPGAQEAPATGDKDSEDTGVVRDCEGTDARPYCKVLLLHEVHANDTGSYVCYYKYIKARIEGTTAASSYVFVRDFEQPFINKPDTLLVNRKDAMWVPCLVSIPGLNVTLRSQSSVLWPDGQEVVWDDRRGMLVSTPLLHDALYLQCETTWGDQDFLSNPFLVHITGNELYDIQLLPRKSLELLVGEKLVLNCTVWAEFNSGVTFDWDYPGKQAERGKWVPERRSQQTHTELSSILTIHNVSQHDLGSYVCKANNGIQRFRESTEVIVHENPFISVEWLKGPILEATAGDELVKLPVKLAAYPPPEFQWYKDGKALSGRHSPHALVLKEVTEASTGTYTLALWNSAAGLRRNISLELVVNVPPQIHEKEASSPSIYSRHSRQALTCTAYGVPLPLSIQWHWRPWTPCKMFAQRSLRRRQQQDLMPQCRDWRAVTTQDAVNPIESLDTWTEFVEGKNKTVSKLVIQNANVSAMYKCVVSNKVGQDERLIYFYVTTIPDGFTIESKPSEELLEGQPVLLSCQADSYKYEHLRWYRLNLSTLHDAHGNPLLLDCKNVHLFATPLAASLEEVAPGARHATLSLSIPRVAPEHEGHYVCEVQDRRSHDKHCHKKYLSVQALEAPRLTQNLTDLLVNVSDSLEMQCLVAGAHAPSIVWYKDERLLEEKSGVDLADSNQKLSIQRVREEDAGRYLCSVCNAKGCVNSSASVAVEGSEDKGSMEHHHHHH
Put plainly: depletion with Flt4EC affinity matrix, read out by VEGFR-2 phosphorylation.

With “VEGF-C ΔNΔCHis (from UniProt P49767 103-225) (ligand)”, in test [1], the Kd (in general, the constant that tells how readily two partners part at equilibrium) stood at 0.135 nM.

B1: 29 kD VEGF-C polypeptide (beginning with amino acid 228 of prepro-VEGF-C) (other)
chain: SLPATLPQCQAANKTCPTNYMWNNHICRCLAQEDFMFSSDAGDDSTDGFHDICGPNKELDEETCQCVCRAGLRPASCGPHKELDRNSCQCVCKNKLFPSQCGANREFDENTCQCVCKRTCPRNQPLNPGKCACECTESPQKCLLKGKKFHHQTCSCYRRPCTNRQKACEPGFSYSEEVCRCVPSYWKRPQMS
notes: C-terminal propeptide; also called 29 kD component; 29 kD form
Take B1: the binding result in test [2] is “binds”.

B2: recombinant human VEGF165 (ligand)
chain: APMAEGGGQNHHEVVKFMDVYQRSYCHPIETLVDIFQEYPDEIEYIFKPSCVPLMRCGGCCNDEGLECVPTEESNITMQIMRIKPHQGQHIGEMSFLQHNKCECRPKKDRARQENPCGPCSERRKHLFVQDPQTCKCSCKNTDSRCKARQLELNERTCRCDKPRR
notes: Bought protein; also called recombinant human VEGF (R&D Systems)
On to B2, for which the binding result in test [3] is “no binding (tested: 50 ng/ml)”.

The values above are taken from patent US20030091567A1 (published 2003).
